Target: mouse CX3CR1 (mouse)
Experiment: flow cytometry titration on Jurkat cells transfected with mCX3CR1; goat anti-mIgG PE

- EC50: 0.102 µg/mL
B1: 455.1C11 anti-mouse CX3CR1 monoclonal antibody (antibody, V domains shown)
VH: QVQLVETGGGLVRPGNSLKLSCVTSGFTFSNYRMHWLRQFPGKRLEWIAVIAFKSDKFGANYAESVKGRFAISRDDSKNSVYLEMSRLREEDTATYFCSRDGNGPFDYWGQGTTLTVSS
VL: DIVMSQSPSSLTVSVGEKVTMSCKSSQSLLYSGNQKSYLAWYQQKPGQSPRLLIYWASTRESGVPDRFTGSGSGTDFTLTISGVKAEDLAVYYCQRYYGYPRTFGGGTKLEIK

Source: patent US20220289854A1
